Data on 1 protein can be found in PMC4609301 (Molecular cell, 2015).

This data set concerns the molecule itself. In words: phase separation.

B1: FUS low complexity N-terminal domain (residues 1-163) (domain or fragment, human, UniProt P35637 1-163, looked up)
chain: MASNDYTQQATQSYGAYPTQPGQGYSQQSSQPYGQQSYSGYSQSTDTSGYGQSSYSSYGQSQNTGYGTQSTPQGYGSTGGYGSSQSSQSSYGQQSSYPGYGQQPAPSSTSGSYGSSSQSSSYGQPQSGSYSQQPSYGGQQQSYGQQQSYNPPQGYGQQNQYNS
B1: the binding result is “binds”.
